# Test results from patent publication US20240043504A1 (published 2024).
# Positions count from the first letter of the chain named. Where “and” joins values, the source holds several entries; their conditions need not be identical. Equal values may be shown once.
# B1: mAb10933 (antibody, V domains shown)
# VH: QVQLVESGGGLVKPGGSLRLSCAASGFTFSDYYMSWIRQAPGKGLEWVSYITYSGSTIYYADSVKGRFTISRDNAKSSLYLQMNSLRAEDTAVYYCARDRGTTMVPFDYWGQGTLVTVSS
# VL: DIQMTQSPSSLSASVGDRVTITCQASQDITNYLNWYQQKPGKAPKLLIYAASNLETGVPSRFSGSGSGTDFTFTISGLQPEDIATYYCQQYDNLPLTFGGGTKVEIKR
# B2: mAb10967 (antibody, V domains shown)
# VH: EVQLVESGGGLVQPGGSLRLSCAASGFTVSSNYMSWVRQAPGKGLEWVSVIYPGGSTFYADSVKGRFTISRDNSKNTLYLQMNSLRAEDTAVYYCARDQRDFAWGQGTLVTVSS
# VL: B1 VL with T30S, A50D, L96P, G100Q, K103R, V104L
# B3: mAb10954 (antibody, V domains shown)
# VH: EVQLVESGGGLVQPGGSLRLSCAASGITVSSNYMSWVRQAPGKGLEWVSLIYSGGSTYYADSVKGRFTISRDNSKNTLYLQMNSLRVEDTAVYYCARDHGMAAAGYNYWGQGTLVTVSS
# VL: B1 VL with T30N, N31K, A50D, S76N, G77S, I83F, Y87F, L96P, T97A, G100Q
# B4: mAb10984 (antibody, V domains shown)
# VH: EVQLVESGGGLVQPGGSLRLSCAASGLTVNRNYMSWVRQAPGKGLEWVSLIYSGGSTYYADSVKGRFTISRDNSKNTLYLQMNSLRLEDTAVYYCARGELGIPYGMDVWGQGTTVTVSS
# VL: QSVLTQPPSVSAAPGQKVTISCSGSSSNIGNNYVSWYQQLPGTAPKLLIYDNNKRPSGIPDRFSGSKSGTSATLGITGLQTGDEADYYCGTWDSSLSAGVFGGGTKLTVLG
# B5: mAb10966 (antibody, V domains shown)
# VH: EVQLVESGGGLVQPGGSLRLSCAASGLTVSSNYMSWVRQAPGKGLEWVSVIYSGGSTFYADSVKGRFTISRDNSKNTLYLQMNSLRPEDTAVYYCAREGRIAATGYGMDVWGQGTTVTVSS
# VL: not shown
# B6: mAb10987 (antibody, V domains shown)
# VH: QVQLVESGGGVVQPGRSLRLSCAASGFTFSNYAMYWVRQAPGKGLEWVAVISYDGSNKYYADSVKGRFTISRDNSKNTLYLQMNSLRTEDTAVYYCASGSDYGDYLLVYWGQGTLVTVSS
# VL: QSALTQPASVSGSPGQSITISCTGTSSDVGGYNYVSWYQQHPGKAPKLMIYDVSKRPSGVSNRFSGSKSGNTASLTISGLQSEDEADYYCNSLTSISTWVFGGGTKLTVLG
# B7: mAb10989 (antibody, V domains shown)
# VH: QVQLVQSGAEVKKPGASVKVSCKASGYIFTGYYMHWVRQAPGQGLEWMGWINPNSGGANYAQKFQGRVTLTRDTSITTVYMELSRLRFDDTAVYYCARGSRYDWNQNNWFDPWGQGTLVTVSS
# VL: B6 VL with G31T, Y51F, K55N, N62D, S82A, N91S, L93F, S95T, I96S, W99V
# B8: mAb10989 (antibody, V domains shown)
# VH: B7 VH
# VL: B6 VL with G31T, Y51F, K55N, N62D, S82A, N91S, L93F, S95T, I96S, W99V
# B9: mAb10965 (antibody, V domains shown)
# VH: EVQLVESGGGLIQPGGSLRLSCAASVFTVSYNYMSWVRQAPGKGLEWVSVIYSGGSTYYADSVKGRFTISRDNSKNTLYLQMNSLRAEDTAVYYCARALPGWGGSFEYFDYWGQGTLVTVSS
# VL: not shown
# B10: mAb10956 (antibody, V domains shown)
# VH: EVQLVESGGGLVQPGGSLRLSCAASGLTVSSNYMSWVRQAPGKGLEWVSVIYSGGSTFYADSVKGRFTISRDNSKNTLYLQMNSLRAEDTAVYYCARDLIKYGMDVWGQGTTVTVSS
# VL: not shown
# B11: mAb10957 (antibody, V domains shown)
# VH: B10 VH with L27V, Y79F, A87I, I100G, K101P
# VL: DIQLTQSPSFLSASVGDRVTITCRASQGISSYLAWYQQKPGKAPKLLIYAASTLQSGVPSRFSGSGSGTQFILTISSLQPEDFATYYCQQLNSYPGFTFGPGTKVDIKR
# Key:
# [1] = molecular target: full-length SARS-CoV-2 spike protein (amino acids M1-T1273 of accession number YP_009724390.1) on Ju (SARS-CoV-2, UniProt P0DTC2 14-1273); experiment: cell-based or functional assay
# [2] = molecular target: Human SARS Coronavirus Spike S1 Subunit Protein (His Tag) (Sino 40150-V08B1) (Human SARS Coronavirus, UniProt P59594 14-667); experiment: Luminex bead binding, supernatant
# [3] = molecular target: T1, MERS-CoV Spike Protein (ECD, aa 1-1297, His Tag) (Sino 40069-[change]) (MERS-CoV, UniProt K9N5Q8 18-1297); experiment: Luminex, supernatant
# T1 sequence: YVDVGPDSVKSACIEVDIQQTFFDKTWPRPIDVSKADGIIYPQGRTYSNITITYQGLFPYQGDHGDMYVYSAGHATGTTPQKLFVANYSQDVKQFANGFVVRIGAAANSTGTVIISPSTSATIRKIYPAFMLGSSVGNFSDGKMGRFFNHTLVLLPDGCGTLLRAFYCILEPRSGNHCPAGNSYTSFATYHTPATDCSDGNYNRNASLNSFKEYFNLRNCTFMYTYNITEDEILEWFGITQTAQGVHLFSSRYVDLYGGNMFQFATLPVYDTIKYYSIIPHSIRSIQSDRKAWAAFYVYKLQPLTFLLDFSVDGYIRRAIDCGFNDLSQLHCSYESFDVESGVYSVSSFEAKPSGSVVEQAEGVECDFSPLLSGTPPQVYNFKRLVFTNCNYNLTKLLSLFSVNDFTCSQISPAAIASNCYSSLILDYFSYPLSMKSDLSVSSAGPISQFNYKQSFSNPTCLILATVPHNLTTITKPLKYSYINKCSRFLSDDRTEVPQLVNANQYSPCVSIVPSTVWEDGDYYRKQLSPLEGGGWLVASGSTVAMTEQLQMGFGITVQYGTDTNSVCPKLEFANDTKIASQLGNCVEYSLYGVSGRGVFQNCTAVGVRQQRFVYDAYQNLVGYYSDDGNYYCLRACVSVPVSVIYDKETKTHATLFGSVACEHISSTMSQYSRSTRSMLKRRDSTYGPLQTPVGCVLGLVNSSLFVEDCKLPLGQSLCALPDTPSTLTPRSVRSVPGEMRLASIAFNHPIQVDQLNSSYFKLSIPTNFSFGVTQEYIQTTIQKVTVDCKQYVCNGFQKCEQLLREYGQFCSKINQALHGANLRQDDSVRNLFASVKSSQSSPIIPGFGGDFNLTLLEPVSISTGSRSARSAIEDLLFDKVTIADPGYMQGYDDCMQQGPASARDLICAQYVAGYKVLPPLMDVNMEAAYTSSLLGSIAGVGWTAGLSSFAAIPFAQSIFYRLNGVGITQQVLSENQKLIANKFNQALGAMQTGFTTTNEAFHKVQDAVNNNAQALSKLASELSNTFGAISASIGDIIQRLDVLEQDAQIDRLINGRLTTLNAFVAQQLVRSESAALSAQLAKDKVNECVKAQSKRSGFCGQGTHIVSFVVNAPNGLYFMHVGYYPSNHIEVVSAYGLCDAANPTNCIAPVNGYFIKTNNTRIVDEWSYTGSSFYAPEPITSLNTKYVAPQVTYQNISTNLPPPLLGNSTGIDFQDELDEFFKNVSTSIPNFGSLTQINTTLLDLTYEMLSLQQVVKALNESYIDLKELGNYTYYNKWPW
# [4] = molecular target: SARS-CoV-2 Spike Protein (RBD)(R319-F541).hFc (SARS-CoV-2); experiment: Luminex, supernatant
# [5] = molecular target: T2, MERS-CoV (NCoV/Novel coronavirus) Spike Protein fragment (RBD, aa 367-606, His Tag) (Sino 40071-V08B1) (MERS-CoV, UniProt K9N5Q8 367-606); experiment: Luminex, supernatant
# T2 sequence: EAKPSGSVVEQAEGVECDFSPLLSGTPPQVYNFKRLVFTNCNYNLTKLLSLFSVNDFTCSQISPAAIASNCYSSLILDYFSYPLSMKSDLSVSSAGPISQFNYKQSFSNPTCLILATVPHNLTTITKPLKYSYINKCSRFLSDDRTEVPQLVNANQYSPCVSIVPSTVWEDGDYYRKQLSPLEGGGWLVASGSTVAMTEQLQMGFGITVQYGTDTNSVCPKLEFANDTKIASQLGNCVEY
# [6] = molecular target: SARS-CoV-2 Spike Protein (RBD)(R319-F541).mFc (SARS-CoV-2); experiment: Luminex, supernatant
# [7] = molecular target: Human SARS Coronavirus Spike S1 Subunit Protein (His Tag) (Sino 40150-V08B1) (Human SARS Coronavirus, UniProt P59594 14-667); experiment: Luminex, supernatant
# [8] = molecular target: T3, MERS-CoV Spike Protein S2 (aa 726-1296, His Tag) (Sino 40070-[change]) (MERS-CoV, UniProt K9N5Q8 726-1296); experiment: Luminex, supernatant
# T3 sequence: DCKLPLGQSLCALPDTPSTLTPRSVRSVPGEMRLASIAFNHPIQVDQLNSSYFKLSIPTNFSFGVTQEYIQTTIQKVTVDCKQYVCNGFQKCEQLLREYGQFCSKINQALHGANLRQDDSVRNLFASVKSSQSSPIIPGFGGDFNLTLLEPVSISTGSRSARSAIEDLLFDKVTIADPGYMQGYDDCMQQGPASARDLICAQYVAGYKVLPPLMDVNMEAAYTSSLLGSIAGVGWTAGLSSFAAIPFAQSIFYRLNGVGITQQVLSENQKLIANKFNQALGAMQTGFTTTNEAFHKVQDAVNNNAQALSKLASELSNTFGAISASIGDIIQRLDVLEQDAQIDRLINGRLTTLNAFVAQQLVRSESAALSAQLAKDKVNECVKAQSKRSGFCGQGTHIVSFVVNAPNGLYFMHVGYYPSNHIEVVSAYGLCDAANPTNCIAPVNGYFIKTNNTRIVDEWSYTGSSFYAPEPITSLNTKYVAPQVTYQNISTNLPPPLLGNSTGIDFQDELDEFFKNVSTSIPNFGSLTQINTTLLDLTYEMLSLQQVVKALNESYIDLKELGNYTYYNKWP
# [9] = molecular target: T4, MERS-CoV (NCoV/Novel coronavirus) Spike Protein S1 Protein (aa 1-725, His Tag) (Sino 40069-V08B1) (MERS-CoV, UniProt K9N5Q8 18-725); experiment: Luminex, supernatant
# T4 sequence: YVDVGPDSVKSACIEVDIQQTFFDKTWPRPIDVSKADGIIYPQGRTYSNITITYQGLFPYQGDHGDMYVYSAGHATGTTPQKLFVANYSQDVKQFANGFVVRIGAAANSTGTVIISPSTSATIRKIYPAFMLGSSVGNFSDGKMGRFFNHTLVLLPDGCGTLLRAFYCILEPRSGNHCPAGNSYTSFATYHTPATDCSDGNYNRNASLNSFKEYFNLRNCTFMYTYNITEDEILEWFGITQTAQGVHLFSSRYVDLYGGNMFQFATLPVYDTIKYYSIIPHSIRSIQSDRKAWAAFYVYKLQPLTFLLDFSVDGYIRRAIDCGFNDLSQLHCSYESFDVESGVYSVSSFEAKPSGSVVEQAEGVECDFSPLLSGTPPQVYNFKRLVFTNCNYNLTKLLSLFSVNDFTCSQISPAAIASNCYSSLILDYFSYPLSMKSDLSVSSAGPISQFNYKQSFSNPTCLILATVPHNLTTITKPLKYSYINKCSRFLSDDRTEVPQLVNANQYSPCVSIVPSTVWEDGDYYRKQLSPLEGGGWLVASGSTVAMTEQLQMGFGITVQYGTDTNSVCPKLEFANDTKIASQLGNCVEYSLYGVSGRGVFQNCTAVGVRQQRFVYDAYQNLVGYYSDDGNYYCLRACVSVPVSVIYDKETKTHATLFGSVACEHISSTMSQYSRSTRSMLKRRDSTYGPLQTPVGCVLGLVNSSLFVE
# [10] = molecular target: receptor binding domain (RBD) portion of the SARS-CoV-2 Spike protein (amino acids Arg319-Phe541) ex (SARS-CoV-2)
binder,measurement,setting,value
B1,"ADCP EC50 [M], Jurkat/hCD20/SARS-CoV-2 Spike cells",[1],5.79e-12 M
same,"ADCP Max (% ADCP), Jurkat/hCD20/SARS-CoV-2 Spike cells",[1],53.4%
B2,Binding signal (MFI),[2],21 MFI
B3,Binding signal (MFI),[2],15 MFI
B4,MFI,[3],21 MFI
same,MFI,[4],28400 MFI
same,MFI,[5],29 MFI
same,MFI,[6],28400 MFI
same,MFI,[7],22 MFI
same,MFI,[8],25 MFI
same,MFI,[9],20 MFI
B5,Binding signal (MFI),[2],20 MFI
B6,"ADCP EC50 [M], Jurkat/hCD20/SARS-CoV-2 Spike cells",[1],6.33e-12 M
same,"ADCP Max (% ADCP), Jurkat/hCD20/SARS-CoV-2 Spike cells",[1],56.7%
B7,Binding signal (MFI),[2],21 MFI
B8,"ADCP EC50 [M], Jurkat/hCD20/SARS-CoV-2 Spike cells",[1],4.86e-12 M
same,"ADCP Max (% ADCP), Jurkat/hCD20/SARS-CoV-2 Spike cells",[1],56%
same,IC50,[10],59.1 pM and 42.8 pM
B9,Binding signal (MFI),[2],16 MFI
B10,Binding signal (MFI),[2],16 MFI
B11,Binding signal (MFI),[2],16 MFI
